Results reported in US20250027060A1 (VIB VZW, published 2025).

Target: T1, LTKTG-EGFL (human LTK amino acids 63-420) (human, UniProt P29376 63-420)
T1 construct: Fc-His6 tag removed by caspase 3; also called LTK (in BLI, SEC-MALLS and ITC)
T1 sequence: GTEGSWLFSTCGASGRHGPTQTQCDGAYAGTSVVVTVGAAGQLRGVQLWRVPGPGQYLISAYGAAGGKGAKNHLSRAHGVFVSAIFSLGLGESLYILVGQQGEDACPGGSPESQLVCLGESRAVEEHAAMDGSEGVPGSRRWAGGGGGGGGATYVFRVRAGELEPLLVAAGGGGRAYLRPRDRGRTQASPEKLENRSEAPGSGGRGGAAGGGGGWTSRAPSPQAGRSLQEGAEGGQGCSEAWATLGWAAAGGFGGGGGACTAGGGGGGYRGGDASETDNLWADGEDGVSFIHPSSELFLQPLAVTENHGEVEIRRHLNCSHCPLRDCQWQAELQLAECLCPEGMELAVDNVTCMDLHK
Experiment: BLI, biotinylated ALKAL1 R102E on streptavidin biosensors, LTKTG-EGFL in solution, dilution series 6.4 µM-400 nM
Source text: FIGS. 10A and 10B Representative response curves as measure by biolayer-interferometry (BLI) for the interaction of WT ALKAL1 and ALKAL1 mutants (containing charge-reversal mutations of residues involved in site 1) (FIG. 10A) and WT ALKAL2 and ALKAL2 mutants (FIG. 10B) with ALK_TG-EGFL and LTK_TG-EGFL. For WT ALKALs LTK curves were fitted with a 2:1 binding model (red) while for ALK a 1:1 model was used. Start and end concentrations of the 3-fold dilution series used for the WT measurements is shown as an inset while for all mutants a […] dilution series from 6.4 μM-400 nM was used.
All measurements of binding kinetics and dissociation constants were performed using an Octet Red 96 (Forté Bio) in assay buffer (20 mM HEPES pH 7.4, 150 mM NaCl, 0.02% (w/v) BSA, 0.002% (v/v) Tween 20) at 298K. ALKALs were immobilized to a level of 0.5 nm on streptavidin-coated biosensors (Forté Bio). To verify that no a specific binding was present during the assay, non-functionalized biosensors were used as a control by measuring in parallel all ligand concentrations as well as running buffer. For all mutants a two-fold dilution series from 6.4 μM-400 nM was employed. Data analysis was performed using the Data Analysis software 9.0.0.14 (Forté Bio) and binding curves were exported to Prism8 (Graphpad Software) for plotting of curves.

B1: ALKAL1^R102E (residues 57-129) (ligand, human, UniProt Q6UXT8 57-129, looked up)
chain: PSGSRSAEIFPRDSNLKDKFIKHFTGPVTFSPECSKHFHRLYYNTEECSTPAYYKRCARLLTRLAVSPLCSQT
notes: range 57-129; also called ALKAL1 site 1 mutant R102E
- Kd: 14 µM
